According to article PMC9820267:

Target: PSD-95 (DLG4) (UniProt Q62108)
Test: GST pull-down from cotransfected COS7 lysate
Settings: reference: wild type (treatment condition of comparison not stated); sites T585,T612

binding against the reference: weaker
Substance: PSD-93 (DLG2) PDZ3-SH3, 390-620 (from UniProt Q91XM9) T585A/T612A
